The values below come from PMC3567212 (Biochemistry, 2012).

Data set [1] concerns the molecule itself. Kind of data set: AUC.
Data set [2] concerns the molecule itself. Description: AUC. This is another data set of the same source.

B1: Rhizobium etli pyruvate carboxylase R472S (enzyme, UniProt Q2K340 1-1154, looked up)
chain: MPISKILVANRSEIAIRVFRAANELGIKTVAIWAEEDKLALHRFKADESYQVGRGPHLARDLGPIESYLSIDEVIRVAKLSGADAIHPGYGLLSESPEFVDACNKAGIIFIGPKADTMRQLGNKVAARNLAISVGVPVVPATEPLPDDMAEVAKMAAAIGYPVMLKASWGGGGRGMRVIRSEADLAKEVTEAKREAMAAFGKDEVYLEKLVERARHVESQILGDTHGNVVHLFERDCSVQRRNQKVVERAPAPYLSEAQRQELAAYSLKIAGATNYIGAGTVEYLMDADTGKFYFIEVNPRIQVEHTVTEVVTGIDIVKAQIHILDGAAIGTPQSGVPNQEDIRLNGHALQCRVTTEDPEHNFIPDYGRITAYRSASGFGIRLDGGTSYSGAIITRYYDPLLVKVTAWAPNPLEAISRMDRALREFRIRGVATNLTFLEAIIGHPKFRDNSYTTRFIDTTPELFQQVKRQDSATKLLTYLADVTVNGHPEAKDRPKPLENAARPVVPYANGNGVKDGTKQLLDTLGPKKFGEWMRNEKRVLLTDTTMRDGHQSLLATRMRTYDIARIAGTYSHALPNLLSLECWGGATFDVSMRFLTEDPWERLALIREGAPNLLLQMLLRGANGVGYTNYPDNVVKYFVRQAAKGGIDLFRVFDCLNWVENMRVSMDAIAEENKLCEAAICYTGDILNSARPKYDLKYYTNLAVELEKAGAHIIAVKDMAGLLKPAAAKVLFKALREATGLPIHFHTHDTSGIAAATVLAAVEAGVDAVDAAMDALSGNTSQPCLGSIVEALSGSERDPGLDPAWIRRISFYWEAVRNQYAAFESDLKGPASEVYLHEMPGGQFTNLKEQARSLGLETRWHQVAQAYADANQMFGDIVKVTPSSKVVGDMALMMVSQDLTVADVVSPDREVSFPESVVSMLKGDLGQPPSGWPEALQKKALKGEKPYTVRPGSLLKEADLDAERKVIEKKLEREVSDFEFASYLMYPKVFTDFALASDTYGPVSVLPTPAYFYGLADGEELFADIEKGKTLVIVNQAVSATDSQGMVTVFFELNGQPRRIKVPDRAHGATGAAVRRKAEPGNAAHVGAPMPGVISRVFVSSGQAVNAGDVLVSIEAMKMETAIHAEKDGTIAEVLVKAGDQIDAKDLLAVYGG
modifications: covalently attached biotin prosthetic group on the BCCP domain
As to B1, the “% tetramer” value in “AUC [1]” amounted to 72%. In the data set “AUC [2]”, the “stoichiometry N” value was 4.

B2: Rhizobium etli pyruvate carboxylase R472K (enzyme, UniProt Q2K340 1-1154, looked up)
chain: MPISKILVANRSEIAIRVFRAANELGIKTVAIWAEEDKLALHRFKADESYQVGRGPHLARDLGPIESYLSIDEVIRVAKLSGADAIHPGYGLLSESPEFVDACNKAGIIFIGPKADTMRQLGNKVAARNLAISVGVPVVPATEPLPDDMAEVAKMAAAIGYPVMLKASWGGGGRGMRVIRSEADLAKEVTEAKREAMAAFGKDEVYLEKLVERARHVESQILGDTHGNVVHLFERDCSVQRRNQKVVERAPAPYLSEAQRQELAAYSLKIAGATNYIGAGTVEYLMDADTGKFYFIEVNPRIQVEHTVTEVVTGIDIVKAQIHILDGAAIGTPQSGVPNQEDIRLNGHALQCRVTTEDPEHNFIPDYGRITAYRSASGFGIRLDGGTSYSGAIITRYYDPLLVKVTAWAPNPLEAISRMDRALREFRIRGVATNLTFLEAIIGHPKFRDNSYTTRFIDTTPELFQQVKRQDKATKLLTYLADVTVNGHPEAKDRPKPLENAARPVVPYANGNGVKDGTKQLLDTLGPKKFGEWMRNEKRVLLTDTTMRDGHQSLLATRMRTYDIARIAGTYSHALPNLLSLECWGGATFDVSMRFLTEDPWERLALIREGAPNLLLQMLLRGANGVGYTNYPDNVVKYFVRQAAKGGIDLFRVFDCLNWVENMRVSMDAIAEENKLCEAAICYTGDILNSARPKYDLKYYTNLAVELEKAGAHIIAVKDMAGLLKPAAAKVLFKALREATGLPIHFHTHDTSGIAAATVLAAVEAGVDAVDAAMDALSGNTSQPCLGSIVEALSGSERDPGLDPAWIRRISFYWEAVRNQYAAFESDLKGPASEVYLHEMPGGQFTNLKEQARSLGLETRWHQVAQAYADANQMFGDIVKVTPSSKVVGDMALMMVSQDLTVADVVSPDREVSFPESVVSMLKGDLGQPPSGWPEALQKKALKGEKPYTVRPGSLLKEADLDAERKVIEKKLEREVSDFEFASYLMYPKVFTDFALASDTYGPVSVLPTPAYFYGLADGEELFADIEKGKTLVIVNQAVSATDSQGMVTVFFELNGQPRRIKVPDRAHGATGAAVRRKAEPGNAAHVGAPMPGVISRVFVSSGQAVNAGDVLVSIEAMKMETAIHAEKDGTIAEVLVKAGDQIDAKDLLAVYGG
modifications: covalently attached biotin prosthetic group on the BCCP domain
For the protein B2, in “AUC [2]”, the “stoichiometry N” value was determined as 4.

B3: Rhizobium etli pyruvate carboxylase R427K (enzyme, UniProt Q2K340 1-1154, looked up)
chain: MPISKILVANRSEIAIRVFRAANELGIKTVAIWAEEDKLALHRFKADESYQVGRGPHLARDLGPIESYLSIDEVIRVAKLSGADAIHPGYGLLSESPEFVDACNKAGIIFIGPKADTMRQLGNKVAARNLAISVGVPVVPATEPLPDDMAEVAKMAAAIGYPVMLKASWGGGGRGMRVIRSEADLAKEVTEAKREAMAAFGKDEVYLEKLVERARHVESQILGDTHGNVVHLFERDCSVQRRNQKVVERAPAPYLSEAQRQELAAYSLKIAGATNYIGAGTVEYLMDADTGKFYFIEVNPRIQVEHTVTEVVTGIDIVKAQIHILDGAAIGTPQSGVPNQEDIRLNGHALQCRVTTEDPEHNFIPDYGRITAYRSASGFGIRLDGGTSYSGAIITRYYDPLLVKVTAWAPNPLEAISRMDRALREFKIRGVATNLTFLEAIIGHPKFRDNSYTTRFIDTTPELFQQVKRQDRATKLLTYLADVTVNGHPEAKDRPKPLENAARPVVPYANGNGVKDGTKQLLDTLGPKKFGEWMRNEKRVLLTDTTMRDGHQSLLATRMRTYDIARIAGTYSHALPNLLSLECWGGATFDVSMRFLTEDPWERLALIREGAPNLLLQMLLRGANGVGYTNYPDNVVKYFVRQAAKGGIDLFRVFDCLNWVENMRVSMDAIAEENKLCEAAICYTGDILNSARPKYDLKYYTNLAVELEKAGAHIIAVKDMAGLLKPAAAKVLFKALREATGLPIHFHTHDTSGIAAATVLAAVEAGVDAVDAAMDALSGNTSQPCLGSIVEALSGSERDPGLDPAWIRRISFYWEAVRNQYAAFESDLKGPASEVYLHEMPGGQFTNLKEQARSLGLETRWHQVAQAYADANQMFGDIVKVTPSSKVVGDMALMMVSQDLTVADVVSPDREVSFPESVVSMLKGDLGQPPSGWPEALQKKALKGEKPYTVRPGSLLKEADLDAERKVIEKKLEREVSDFEFASYLMYPKVFTDFALASDTYGPVSVLPTPAYFYGLADGEELFADIEKGKTLVIVNQAVSATDSQGMVTVFFELNGQPRRIKVPDRAHGATGAAVRRKAEPGNAAHVGAPMPGVISRVFVSSGQAVNAGDVLVSIEAMKMETAIHAEKDGTIAEVLVKAGDQIDAKDLLAVYGG
modifications: covalently attached biotin prosthetic group on the BCCP domain
With B3, in the data set “AUC [1]”, the “% tetramer” value is 75%. Further, the “stoichiometry N” value in “AUC [2]” is 4.

For orientation: stoichiometry N means a count of units in the complex or per binding partner.
